Measured values published in PMC4909763 (Frontiers in Plant Science, 2016).

Biological target: the molecule itself
Experiment: native gel or EMSA

Protein	stoichiometry N
ER-retained plant-made recombinant human butyrylcholinesterase (prBChE-ER) (enzyme, also called prBChE+KDEL; rBChE+KDEL) EDDIIIATKNGKVRGMNLTVFGGTVTAFLGIPYAQPPLGRLRFKKPQSLTKWSDIWNATKYANSCCQNIDQSFPGFHGSEMWNPNTDLSEDCLYLNVWIPAPKPKNATVLIWIYGGGFQTGTSSLHVYDGKFLARVERVIVVSMNYRVGALGFLALPGNPEAPGNMGLFDQQLALQWVQKNIAAFGGNPKSVTLFGESAGAASVSLHLLSPGSHSLFTRAILQSGSFNAPWAVTSLYEARNRTLNLAKLTGCSRENETEIIKCLRNKDPQEILLNEAFVVPYGTPLSVNFGPTVDGDFLTDMPDILLELGQFKKTQILVGVNKDEGTAFLVYGAPGFSKDNNSIITRKEFQEGLKIFFPGVSEFGKESILFHYTDWVDDQRPENYREALGDVVGDYNFICPALEFTKKFSEWGNNAFFYYFEHRSSKLPWPEWMGVMHGYEIEFVFGLPLERRDNYTKAEEILSRSIVKRWANFAKYGNPNETQNNSTSWPVFKSTEQKYLTLNTESTRIMTKLRAQQCRFWTSFFPKVLEMTGNIDEAEWEWKAGFHRWNNYMMDWKNQFNDYTSKKESCVGLKDEL	4
plant-made recombinant human butyrylcholinesterase, apoplast-targeted (prBChE) (enzyme, UniProt P06276 29-602, looked up, also called prBuChE; prBChE-AWF) EDDIIIATKNGKVRGMNLTVFGGTVTAFLGIPYAQPPLGRLRFKKPQSLTKWSDIWNATKYANSCCQNIDQSFPGFHGSEMWNPNTDLSEDCLYLNVWIPAPKPKNATVLIWIYGGGFQTGTSSLHVYDGKFLARVERVIVVSMNYRVGALGFLALPGNPEAPGNMGLFDQQLALQWVQKNIAAFGGNPKSVTLFGESAGAASVSLHLLSPGSHSLFTRAILQSGSFNAPWAVTSLYEARNRTLNLAKLTGCSRENETEIIKCLRNKDPQEILLNEAFVVPYGTPLSVNFGPTVDGDFLTDMPDILLELGQFKKTQILVGVNKDEGTAFLVYGAPGFSKDNNSIITRKEFQEGLKIFFPGVSEFGKESILFHYTDWVDDQRPENYREALGDVVGDYNFICPALEFTKKFSEWGNNAFFYYFEHRSSKLPWPEWMGVMHGYEIEFVFGLPLERRDNYTKAEEILSRSIVKRWANFAKYGNPNETQNNSTSWPVFKSTEQKYLTLNTESTRIMTKLRAQQCRFWTSFFPKVLEMTGNIDEAEWEWKAGFHRWNNYMMDWKNQFNDYTSKKESCVGL	4
